# Laboratory results reported in US20260159594A1 (UNIVERSITY OF TOKYO, published 2026).
# T1: human IL13RA2 (human, UniProt Q14627 27-380)
# T1 construct: also called interleukin 13 receptor subunit alpha 2; 13R2
# T1 sequence: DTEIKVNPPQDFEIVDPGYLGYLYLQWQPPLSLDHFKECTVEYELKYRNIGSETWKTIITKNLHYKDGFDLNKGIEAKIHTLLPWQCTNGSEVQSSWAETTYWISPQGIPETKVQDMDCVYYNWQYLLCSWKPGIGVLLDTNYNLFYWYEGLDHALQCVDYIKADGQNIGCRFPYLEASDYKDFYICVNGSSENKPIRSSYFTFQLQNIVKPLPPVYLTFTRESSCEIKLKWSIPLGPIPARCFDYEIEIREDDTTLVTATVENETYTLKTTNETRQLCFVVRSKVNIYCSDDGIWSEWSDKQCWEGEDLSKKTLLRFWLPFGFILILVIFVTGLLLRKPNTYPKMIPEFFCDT
# B1: 4E6 antibody (antibody, V domains shown)
# VH: EVKLEESGPGLVAPSQSLSIACTVSGFSLTRHGIHWVRQPPGKNLEWLGVIWAGGSTNYNSALMSRLSIIKDNSKSQVFLKMNSLQTVDTAMYYCARDHFDSFDYWGQGTTLTVSS
# VL: DIVLTQTPAIMSASLGERVTMTCTASSSVSSSYLHWYQQKPGSSPKLWIYSTSNLASGVPLRFSGSGSGTSYSLTISSMEAEDAATYYCHQYHRSPLTFGAGTKLELKR
# notes: also called anti-IL13RA2 antibody; antibody produced by hybridoma NITE BP-03673
# Molecular target: T1, human IL13RA2
# Assay: flow cytometry on U87(+), H1299(+) and RPMI7951 cells; Alexa Fluor 488-labeled anti-mouse IgG secondary antibody
# Experimental: Flow cytometry analysis was carried out using LSRFortessa (BD Biosciences).
binder,measurement,value
B1,binding result,binds
